Stoichiometry N data for one substance are collected here from PMC8556327.

Values joined by “and” are separate entries in the source; they are usually repeats but may differ in a detail not shown here. Equal values may be shown once.

Assay [1] concerns the target C-phycocyanin (αβ) monomer from Thermoleptolyngbya sp. O-77 (TlCPC) (Thermoleptolyngbya sp. O-77). The assay is described as follows: crystal structure; TlCPC-6 crystals (rhombus or rod), sitting-drop vapor diffusion at 20 °C; reservoir 8% Tacsimate (pH 5.0), 20% polyethylene glycol 3,350; 1.65 Å.
For assay [2] the target is unchanged. The assay is described as follows: AUC; sedimentation velocity, TlCPC 0.92 mg/mL in potassium phosphate buffer (pH 7.0, 10 mM), 20 °C, 60,000 rpm, absorbance at 277 nm, c(s) distribution (SEDFIT); major species 5.24 S, minor species 3.15 S (monomer), 7.97 S and 11.32 S.
For assay [3] the target is unchanged. Briefly: crystal structure; TlCPC-8 crystals (cube), sitting-drop vapor diffusion at 20 °C (also obtained at 42 °C); reservoir 1.6 M sodium chloride, 8% polyethylene glycol 6,000, 20% glycerol; space group I432; 2.77 Å.
Assay [4] shares this target. The assay is described as follows: cryo-EM structure; TlCPC 6.7 and 10 mg/mL in potassium phosphate buffer (pH 7.0, 10 mM), flash-frozen on holey carbon grid; single particle analysis; hexamers and octamers in the same specimens.

What is called stoichiometry N is a count of units in the complex or per binding partner. Turning to “C-phycocyanin (αβ) monomer from Thermoleptolyngbya sp. O-77 (TlCPC) (complex)”, the stoichiometry N is 6 in assay [1]; 2 and 6 and 4 in assay [2]; 8 in assay [3]; 6 and 8 in assay [4].
